Data reported in patent US11541126B1, “Anti-ASGR1 antibody TLR8 agonist comprising conjugates and uses thereof” (Silverback Therapeutics, Inc., priority 2020, dated 2023).
“Also recorded” adds a separate entry of the source.

Assays:
[1] = Experimental: Throughout the course of this experiment, weekly body weights were obtained for each animal. In addition, the animals were monitored for an increase in ALT enzyme activity as a sign of liver damage. Plasma samples from d0, d7, d21, and d35 were assayed for levels of ALT with ALT Activity Assay Kit (Sigma Chemical Co., MAK052).
HBV = experiment: AAV-HBV mouse model for chronic HBV infection: viral DNA, HBsAg, anti-HBsAg seroconversion; assay type: in vivo
Experimental: C57BL/6 mice were transduced with AAV8-HBV1.2 vector and sorted into treatment groups (n=10). Animals received 0.5 mg/dose of ASGR1-TLR8-S, 0.5 mg of unconjugated mASGR1 mAb or vehicle, sc QWx5 beginning d0 (black arrows). In FIG. 8A, dotted line is LLOQ for HBsAg ELISA. In FIG. 8B, average plasma anti-HBsAg IgG was determined by ELISA. p-values determined by T-test by comparison to vehicle group.
An in vivo mouse model for chronic HBV to examine the therapeutic effect of ASGR1-TLR8 agonists of the instant disclosure. […] Like TLR8 in humans, and in contrast to TLR7 in humans, TLR7 in mice is expressed in myeloid cells, like macrophages. Thus, for in vivo murine experiments, an anti-ASGR1-TLR7 agonist conjugate was generated as a surrogate for human anti-ASGR1-TLR8 agonist conjugates. In addition, the anti-human ASGR1 antibody 4F3 was “murinized” so as to bind to mouse ASGR1.
On day 0 animals were sorted into viral load-balanced treatment groups of 10. […] The experiment was ended on day 35. Weekly plasma samples were assessed for viral DNA and antigens, including samples from post-transduction (i.e., infection) but pre-treatment. HBV DNA in mouse plasma was isolated with QIAAMP® 96 DNA Blood Kit following the manual and quantified by qPCR. The standard curve DNA of 10^7 copies/μL was prepared by 60-fold dilution of 5 ng/μL pAAV2-HBV1.3 plasmid DNA, then serially diluted 10-fold with AE buffer from 10^7 to 10 copies/μL. A 2 μl volume from samples was added to standard qPCR assay mixtuRes. The PCR mixture and samples or plasmid DNA standard were added to 384-well optical reaction plates. PCR was run at 95° C. for 10 min for 1 cycle, at 95° C. for 15 sec, 60° C. for 1 min for 40 cycles. HBsAg plasma levels were determined by ELISA assay using HBsAg ELISA kit (Autobio) according to the manual.

AAV-HBV transduced mice = experiment: Viral DNA and HBsAg antigen in mouse AAV-HBV model (replicated experiment); assay type: in vivo
CD19^pos B cells = experiment: CD86 on CD19pos B cells after PBMC co-culture (flow cytometry); assay type: cell-based, human; conditions: co-culture of PBMC with ASGR1^pos cells, 10 nM, 24 and 48 hours
Experimental: FIG. 9 is a pair of graphs showing that ASGR1-TLR8 increases B cell expression of CD86, an activation marker indicative of increased antigen presentation and IgG secretion. CD86 levels on CD19^pos B cells were determined by flow cytometry after co-culture of PBMC with ASGR1^pos or ASGR1^neg cells in presence of test articles at 10 nM at 24 hours (left) and 48 hours (right). This ASGR1-TLR8 contains a mouse-human chimeric anti-ASGR1 antibody.
ASGR1-TLR8 conjugate activation increases B-cell expression of CD86, an activation marker indicating increased antigen presentation and IgG secretion. Abbreviations: monoclonal antibody (mAb), positive (pos), negative (neg), mean fluorescence intensity (MFI), hours (hrs). This ASGR1-TLR8 conjugate contains a humanized anti-ASGR1 antibody and has a DAR4.

[2] = test system: B cells in human PBMC and ASGR1pos target cell co-culture; experiment: CD86 on CD19pos B cells in human PBMC and ASGR1pos target cell co-culture (FACS); assay type: cell-based; conditions: 10 nM, 24 or 48 hours; FIG. 9 and FIG. 11
Experimental: Normal human donor PBMCs were co-cultured with cell lines expressing ASGR1 (ASGR1^pos) or not (ASGR1^neg) in the presence of 10 nM of either anti-ASGR1-TLR8 conjugate, the unconjugated antibody, an anti-digoxigenin-TLR8 conjugate or no treatment. After 24 or 48 hours of incubation, cells were harvested and processed for FACS analysis (BD FACSCelesta™ Flow Cytometer) by standard procedures for washing and incubation with immune cell lineage antibodies, that included anti-CD19 antibody to identify B cells, and antibodies to detect levels of cell activation molecules, including anti-CD86 antibody.

[3] = test system: NK cells, CD8+ T cells and CD4+ T cells in human PBMC and ASGR1pos target cell co-culture; experiment: IFNγ on NK cells, CD8+ and CD4+ T cells in human PBMC and ASGR1pos target cell co-culture (FACS); assay type: cell-based; conditions: 10 nM, 24 or 48 hours; FIG. 10
Experimental: Normal human donor PBMCs were co-cultured with cell lines expressing ASGR1 (ASGR1^pos) or not (ASGR1^neg) in the presence of 10 nM of either anti-ASGR1-TLR8 conjugate, the unconjugated antibody, an anti-digoxigenin-TLR8 conjugate or no treatment. After 24 or 48 hours of incubation, cells were harvested and processed for FACS analysis (BD FACSCelesta™ Flow Cytometer) by standard procedures for washing and incubation with immune cell lineage antibodies, that included antibodies to detect levels of cell activation molecules, including anti-IFNγ antibody.

[4] = defined from liver payload PK after SC doses
Source text: Subcutaneous (SC) doses assessed are similar to those in FIGS. 6A and 6B. Liver payload PK was used as measure of conjugate uptake.
SC doses assessed are similar to those in FIGS. 6A and 6B. Liver payload PK was used as measure of conjugate uptake.

[5] = 0.5 mg subcutaneous once a week for 5 weeks

B1: ASGR1-TLR8-S: "The surrogate (i.e., murinized ASGR1 mAb-C (having 4F3 CDRs)-IgG2a conjugated to a TLR7 agonist Compound 4.1)" (conjugate)
heavy: EVKLVESGGGLVKPGGSLKLSCAASGFTFSSYAMSWVRQTPEKRLEWVSAISGSGGSTYYADSVKGRFTISRDNAKNTLYLQMSSLRSEDTAMYYCAKDFSSRRWYLEYWGQGTTLTVSSAKTTAPSVYPLAPVCGDTTGSSVTLGCLVKGYFPEPVTLTWNSGSLSSGVHTFPAVLQSDLYTLSSSVTVTSSTWPSQSITCNVAHPASSTKVDKKIEPRGPTIKPCPPCKCPAPNLLGGPSVFIFPPKIKDVLMISLSPIVTCVVVDVSEDDPDVQISWFVNNVEVHTAQTQTHREDYNSTLRVVSALPIQHQDWMSGKEFKCKVNNKDLPAPIERTISKPKGSVRAPQVYVLPPPEEEMTKKQVTLTCMVTDFMPEDIYVEWTNNGKTELNYKNTEPVLDSDGSYFMYSKLRVEKKNWVERNSYSCSVVHEGLHNHHTTKSFSRTPGK
light: QAVLTQEPALSVSLGQTVTLTCQGDSLRSYYASWYQQKPGQAPVLVIYGKNNRPSGVPARFSGSLIGDKAALTITGAQTEDEAIYYCNSLERIGYLSYVFGGGTKVTVLRADAAPTVSIFPPSSEQLTSGGASVVCFLNNFYPKDINVKWKIDGSERQNGVLNSWTDQDSKDSTYSMSSTLTLTKDEYERHNSYTCEATHKTSTSPIVKSFNRNEC
modifications: conjugated to TLR7 agonist Compound 4.1; Synthetic sequence mzASGR1 mAb-C Heavy Chain (VH-IgG2a); Synthetic sequence mzASGR1 mAb-C Light Chain (VL-kappa)
- Body weight [1, 5]: gained weight like control animals
- ALT enzyme activity ([1]; plasma d0, d7, d21, d35): no increase
- HBsAg antigen in plasma (HBV; [5]): significantly lowered; also recorded: reduces
- Viral DNA in plasma (HBV; [5]): significantly lowered
- Anti-HBsAg seroconversion (HBV; 0.5 mg/dose sc QWx5): drives seroconversion
- HBsAg antigen (AAV-HBV transduced mice; FIG. 8A): significantly lowered
- viral DNA (AAV-HBV transduced mice; data not shown): significantly lowered

B2: ASGR1-TLR8: This ASGR1-TLR8 contains a mouse-human chimeric anti-ASGR1 antibody (conjugate)
heavy: B1 heavy
light: B1 light
modifications: TLR8 agonist conjugated; Synthetic sequence mzASGR1 mAb-C Heavy Chain (VH-IgG2a); Synthetic sequence mzASGR1 mAb-C Light Chain (VL-kappa)
notes: This ASGR1-TLR8 contains a mouse-human chimeric anti-ASGR1 antibody
- B cell expression of CD86 (CD19^pos B cells): increases
- levels of CD86 on CD19pos cells (MFI) [2]: B cells were activated
- levels of IFNγ on NK cells, CD8+ T cells and CD4+ T cells (MFI) [3]: drives an IFNγ response

B3: ASGR1-S: a mouse conjugate surrogate for an ASGR1-TLR8 conjugate intended for therapeutic use in a human (conjugate)
heavy: B1 heavy
light: B1 light
modifications: conjugated to TLR agonist Compound 4.1; Synthetic sequence mzASGR1 mAb-C Heavy Chain (VH-IgG2a); Synthetic sequence mzASGR1 mAb-C Light Chain (VL-kappa)
notes: a mouse conjugate surrogate for an ASGR1-TLR8 conjugate intended for therapeutic use in a human
- Target payload liver concentration [4]: approximately 100 ng/g
- Seroconversion in the AAV-HBV model (HBV; at 5 mg/kg and 10 mg/kg): observed in some animals
